The source of these data is publication PMC10284691 (2023).

The target in assay [1] is T1, BPH14–LRR (purified from insect cells) (rice (Oryza sativa), line RI35 carrying …, biotin (NHS-biotin) in the BLI assays; RED-NHS 2nd Generation dye in the MST assays).
T1 chain: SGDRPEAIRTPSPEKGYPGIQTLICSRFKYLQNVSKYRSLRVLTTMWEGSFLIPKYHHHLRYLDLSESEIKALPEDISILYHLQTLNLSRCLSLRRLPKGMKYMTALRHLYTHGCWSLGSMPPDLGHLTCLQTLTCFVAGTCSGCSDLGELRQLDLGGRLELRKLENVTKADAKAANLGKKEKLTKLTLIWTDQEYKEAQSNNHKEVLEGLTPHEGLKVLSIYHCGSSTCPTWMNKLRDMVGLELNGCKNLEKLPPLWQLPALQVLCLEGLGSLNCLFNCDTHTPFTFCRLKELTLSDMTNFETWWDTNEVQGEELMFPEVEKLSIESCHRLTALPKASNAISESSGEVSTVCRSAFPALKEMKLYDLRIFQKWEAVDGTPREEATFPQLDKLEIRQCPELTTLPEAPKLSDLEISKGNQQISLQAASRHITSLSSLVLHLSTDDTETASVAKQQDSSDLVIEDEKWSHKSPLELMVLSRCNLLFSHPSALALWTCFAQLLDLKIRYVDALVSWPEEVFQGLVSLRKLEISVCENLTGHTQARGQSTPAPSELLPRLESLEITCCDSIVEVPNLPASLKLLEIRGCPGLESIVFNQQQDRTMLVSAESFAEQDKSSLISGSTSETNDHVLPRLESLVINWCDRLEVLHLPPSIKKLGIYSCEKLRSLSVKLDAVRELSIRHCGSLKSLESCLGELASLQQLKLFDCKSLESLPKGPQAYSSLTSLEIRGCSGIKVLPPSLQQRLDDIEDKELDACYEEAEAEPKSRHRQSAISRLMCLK
As to the kind of experiment: BLI.

Assay [2] addresses T1, BPH14–LRR (purified from insect cells). The assay is described as follows: MST.
Assay [3] shares this target. As to the kind of experiment: MST; competition with BISP(26–124) prebound to LRR.
Assay [4] has the same target. As to the kind of experiment: BLI.

Read-outs that look alike come from different tables or passages of the source.

B1: BISP (purified from insect cells) (natural protein)
chain: SAMRYASGFQNNERQSSEQESYSRSAQSSEKSSSGYQMGEMASAGVGMSSGYGGSGYSSGGGYQQGVGYSGCDSDYSSGGIGGIVNTATGLASSVTGMAGGLGGGGGLADVGGVVNTVSGLADVGGLTNTVSGLADVGGVTNTVGGLVNGIAGGGAGGGLLGGVLGGGDGGCGGNCGGNCGGNCGGRGGGGGGLLGGILGGGSGGGRGARVSARVC
What is called koff is the first-order rate constant of dissociation. A higher koff goes with fast dissociation. The Kd is the constant that tells how readily two partners part at equilibrium. A lower Kd goes with tighter binding. In general, Ki refers to the equilibrium dissociation constant of an inhibitor or competing ligand from its target. The low end stands for higher affinity, the high end for lower affinity. Molecule B1 showed an off-rate constant (koff) in assay [1] of 0.000341 s⁻¹. For the same molecule, binding in assay [2] was put at a Kd of 9.72 nM. Further, the inhibitory constant (Ki) in assay [3] came to 98 nM.

B2: BISP(26–124) (purified from insect cells) (domain or fragment)
chain: SAMRYASGFQNNERQSSEQESYSRSAQSSEKSSSGYQMGEMASAGVGMSSGYGGSGYSSGGGYQQGVGYSGCDSDYSSGGIGGIVNTATGLASSVTGMA
As to B2, the koff in assay [4] turned out to be 0.000719 s⁻¹. Moreover, binding in assay [2] was characterised by a dissociation constant (Kd) of 56.1 nM.
